Results as given in patent publication US20040014707A1 (published 2004).

Assays:
EGFP-PA32 fusion protein = EGFP-PA32 fusion protein (Bacillus anthracis); assay: SPR (BIAcore), […], single concentration
recombinant PA32 protein = recombinant PA32 protein (Bacillus anthracis); assay: SPR, PA32 coupled to CM5 chip, single scFv concentration
[1] = biological target: Bacillus anthracis protective antigen PA83 (Bacillus anthracis, UniProt P13423 30-764); assay: SPR (BIACORE), PA83 on CM5 chip, 4 concentrations of monomeric scFv

Binder | binding result (EGFP-PA32 fusion protein) | binding result (recombinant PA32 protein) | Kd [1] [nM]
scFv#12 (scFv) scFv: QVQLVESGGGVVQPGRSLRLSCAASGFTFNNHAMEWVRQAPGKGLEWVSGINWDGGSTGYADSVKGRFAVSRDNAKNSLYLQINSLRDEDTAVYYCARANWGRIDYWGQGTLVTVSSGGGGSGGGGSGGGGSSELTQDPAVSVALGQTVRITCQGDSLRRYYASWYQQKPGQAPVLVIYGKNNRPSGIPDRFSGSSSGNTASLTITGAQAEDEADYYCHSRDSSGTHLRVFGGGTKLTVLGAAAEQKLISEEDLNGAAHHHHH | no binding | no binding | –
scFv#1 (scFv) scFv: QVNLRESGGGLVQPGGSLRLSCAASGFTFSSYAMSWVRQAPGKGLEWVSAISSNGGSTYYADSVKGRFTISRDNSKNTLYLQMSSLRAEDTALYYCARERGAAAASDYWGPGTLVTVSSGGGGSSGGGSGGGGSQSVLTQPPSASGTPGQRVTISCSGSSSNIGSNSVNWYQQLPGTAPKLLIYSNSNRPSGVPDRFSGSKSGTSASLAISGLRSEDEADYYCAAWDDSLSGRVFGGGTKLTVLGAAAEQKLISEEDLNGAAHHHHHH | – | – | 190
scFv#24 (scFv) scFv: QVQLVESGGGLVQPGGSLRLSCSASGFTFSSYAMHWVRQAPGKGLEYVSAISSNGGSTYYADSVKGRFTISRDNSKNTLYLQMSSLRAEDTAVYYCVKDLHVGRLQLGVFDYWGQGTLVTVSSGGGGSGGGGSGGGGSSELTQDPAVSVAVGQTVKITCQGDSLRSYYATWYQQKPGQAPVLVIYGKNSRPSGIPDRFSGSSSGTTASFTITGAQAEDEADYYCNSRDSTNNQLFGGGTKLTVLGAAAEQKLISEEDLNGAAHHHHH | – | – | 430
scFv#4 (scFv) scFv: QVQLVESGGGLVQPGGSLRLSCSASGFTFSSYAMHWVRQAPGKGLEYVSAISSNGGSTYYADSVKGRFTISRDNSKNTLYLQMSSLRAEDTAVYYCVKDLHVGRLQLGVFDYWGQGTLVTVSSGGGGSGGGGSGGGGSSELTQDPAVSVALGQTVRITCQGDSLRSYYASWYQQKPGQAPVLVIYGKNNRPSGIPDRFSGSSSGNTASLTITGAQAEDEADYYCNSRDSSSTHRGVFGGGTKLTVLGAAAEQKLISEEDLNGAAHHHHHH | – | – | 310
